Where no end group is shown, it is not given here. The star is where a group is joined. FITC = O=C1OC2(c3ccc(O)cc3Oc3cc(O)ccc32)c2ccc(NC(=S)*)cc21

The source of these data is patent US9789213B2, “EGFL7 targeting and/or binding polypeptides and methods for inhibiting angiogenesis” (LONDON HEALTH SCIENCES CENTRE RESEARCH INC., priority 2012, dated 2017).

The first test has as its target T1, recombinant GST-EGFL7 protein (Homo sapiens, UniProt Q9UHF1).
T1 construct: Magnetic nanobeads are then coated with full-length recombinant EGFL7; made in house; host or cells: Spodoptera frugiperda Sf21 (baculovirus)
T1 sequence (Q9UHF1 24-273): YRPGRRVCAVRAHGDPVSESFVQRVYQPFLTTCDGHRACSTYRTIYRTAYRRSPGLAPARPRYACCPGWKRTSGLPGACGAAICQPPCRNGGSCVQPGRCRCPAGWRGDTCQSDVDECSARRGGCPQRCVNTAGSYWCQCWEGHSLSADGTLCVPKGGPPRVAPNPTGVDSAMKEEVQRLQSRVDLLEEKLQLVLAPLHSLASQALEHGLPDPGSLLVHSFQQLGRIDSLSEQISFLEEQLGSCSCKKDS
Kind of test: OBOC peptide library screen ('beads on a bead') with secondary cell-based screen. It counts as binding. Particulars: hit beads from magnetic-bead screen and secondary cell-based screen. An excerpt: The present invention also encompasses methods of screening polypeptides to identify those that interact with EGFL7 and modulate and EGFL7 activity and/or function. In a specific aspect, a combinatorial peptide library is screened using a “beads on a bead” approach, as set out in FIG. 1 and described in Cho et al., which is incorporated herein by reference in its entirety. […] Magnetic nanobeads are then coated with full-length recombinant EGFL7, are mixed with the peptide library, and the most highly interacting library bead “hits” are sorted using large format flow cytometry. An on-bead cell binding assay can then be used to validate the peptide hits using human endothelial cells. Validated hit peptides are then sequenced using an in-house MALDI-TOF/MS technique, and their binding affinity to EGFL7 is quantified using surface plasmon resonance (SPR) (Amadei et al. 2009, J. Mass Spectrometry, 45:241-51; U.S. Pat. Nos. 5,510,240; and 7,262,269, each of which is incorporated by reference herein in its entirety).
All fractions containing EGFL7 recombinant protein were pooled together. 30 μg of anti-GST antibody was mixed into the protein solution, and incubated with 370 mg of MagnaBind Protein A/G magnetic beads (Thermo Scientific) for 15 minutes at 4° C. After several washing with wash buffer, the proteins were released from the magnetic beads by boiling in SDS loading buffer, and analyzed by western blot using anti-EGFL7 polyclonal antibody (R&D Systems).
The OBOC peptide library beads were washed extensively using 70% ethanol, distilled water and binding buffer (50 mM Na2HPO4, 150 mM NaCl, 2 mM CaCl2, 0.5M L-Arginine, pH 7.4) before screening. The magnetic beads were mixed with the library beads in a glass vial, and incubated at 37° C. for 1 hour, A strong magnet was placed at the side of the vial, and the library was screened as described in Cho et al. Positive hits were pooled and washed extensively with ethanol and water. A secondary cell-based screen was performed using EGFL7-positive HT1080 fibrosarcoma cells expressing tdTomato, and EGFL7-negative MDA435 breast cancer cells expressing GFP as described in Cho et al. Hit beads were collected and peptides were sequenced on-bead using MALDI TOF MS/MS as described in Cho et al.
Recombinant EGFL7 protein was purified (FIGS. 2A and 2B) and conjugated onto magnetic beads. Western blot analysis was performed to show successful conjugation of purified EGFL7 onto magnetic beads using a polyclonal anti-EGFL7 antibody (FIG. 2C). EGFL7-conjugated magnetic beads were then mixed with a OBOC combinatorial peptide library, and positive hits were isolated using a strong neodynium magnet. […] Beads were examined under an inverted fluorescence microscope, and hit beads that strongly associated with red cells, but had little or no interaction with green cells were isolated manually.
Consider EWELHAEE (EGFL7 interacting peptide), for which the “affinity for EGFL7 in OBOC peptide library screening” value (“affinity for EGFL7” for short) is recorded as “high affinity”.
The same measure, in the same setting: with RYQLHHPR (EGFL7 interacting peptide) the entry was “high affinity”; with DPYDHEFR (EGFL7 interacting peptide), “high affinity”.
As to WYKLHPTM (EGFL7 interacting peptide), the “affinity for EGFL7” value is “high affinity”.
On to SQSSMYPS (EGFL7 interacting peptide), for which the “affinity for EGFL7” value is reported as “high affinity”.
Regarding AYYEEAYE (EGFL7 interacting peptide), the “affinity for EGFL7” value is on record as “high affinity”.
Consider RYVDHEDW (EGFL7 interacting peptide), for which the “affinity for EGFL7” value is reported as “high affinity”.

Another test deals with HUVECs. As to the kind of experiment: Cell uptake of FITC-labelled peptide by HUVECs with or without EGFL7 siRNA knockdown, flow cytometry. Format: cell-based, human. Particulars: HUVECs treated with negative siRNA or EGFL7 siRNA; 1 mM, 1 hour at 4° C. On the procedure:
EGFL7 knockdown in human umbilical vein endothelial cells (HUVECs) was achieved using a siRNA targeting the exon 5 of the protein and INTERFERin transfection reagent (HUVECs-si). Wildtype HUVECs and HUVECs-si cells were seeded onto separate wells in a 6-well tissue culture plate to approximately 80% confluency. The cells were incubated overnight in DMEM containing 10% fetal bovine serum and Pen/Strep at 37° C. with 5% CO2. The media in each well were removed and replaced with pre-chilled PBS. FITC-E7-p72 (FITC-HMYFLLGH; SEQ ID NO: 20) was added onto cells to a final concentration of 1 mM and incubated for 1 hour at 4° C. Cells were detached from the well with EDTA, washed three times with PBS, and fixed with 4% formaldehyde. The uptake of FITC-labeled peptides was analyzed by flow cytometry.
Background: Flow cytometry measures light scatter and fluorescence of single cells or particles in a stream.
In the case of {FITC}-HMYFLLGH [FITC-E7-p72], the “uptake of fluorescein-labelled peptide” value is “dependent on EGFL7 expression”.
